Like-named read-outs stand apart in the source and are kept apart here.
Experiments:
YTHDF2 (Homo sapiens) = settings: co-localization with RIG-I and YTHDF2 in HeLa
RIG-I (Homo sapiens) = settings: immunofluorescence co-localization with RIG-I and K63-polyubiquitin in HeLa

Substance | activity (YTHDF2 (Homo sapiens); 10% m6A random) | activity (YTHDF2 (Homo sapiens)) | activity (RIG-I (Homo sapiens))
10% m6A circFOREIGN | 65.3% |  | 
FITC-circFOREIGN |  | 33.8% | 85.5%
